According to article PMC3035050 (Molecular microbiology, 2008):
Changes are numbered by the printed parent chain. Each block holds one molecule with its values, some of them ahead of it.

T1: B. stearothermophilus primase DnaG E464G (B. stearothermophilus, UniProt Q9X4D0 1-597, E464G)
T1 sequence (looked up): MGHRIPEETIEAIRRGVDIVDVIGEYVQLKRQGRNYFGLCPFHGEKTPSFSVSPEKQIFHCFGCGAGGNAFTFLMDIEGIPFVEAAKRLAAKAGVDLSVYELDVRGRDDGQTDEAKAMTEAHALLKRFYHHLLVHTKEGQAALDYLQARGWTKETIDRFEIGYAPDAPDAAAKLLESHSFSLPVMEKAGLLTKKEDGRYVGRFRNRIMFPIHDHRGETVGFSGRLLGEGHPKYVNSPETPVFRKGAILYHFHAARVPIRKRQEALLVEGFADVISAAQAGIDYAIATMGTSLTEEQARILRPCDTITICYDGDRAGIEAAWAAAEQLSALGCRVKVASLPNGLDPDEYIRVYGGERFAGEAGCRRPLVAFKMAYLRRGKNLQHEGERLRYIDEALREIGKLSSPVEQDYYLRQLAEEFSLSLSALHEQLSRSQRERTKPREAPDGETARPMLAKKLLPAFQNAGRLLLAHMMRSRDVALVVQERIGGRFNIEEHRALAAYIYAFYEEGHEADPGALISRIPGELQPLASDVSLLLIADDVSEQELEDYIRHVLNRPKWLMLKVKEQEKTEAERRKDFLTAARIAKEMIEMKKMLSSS

T2: B. stearothermophilus primase DnaG H494A (B. stearothermophilus, UniProt Q9X4D0 1-597, H494A)
T2 sequence (looked up): T1 sequence (looked up) with G464E, H494A

T3: B. stearothermophilus primase DnaG R495A (B. stearothermophilus, UniProt Q9X4D0 1-597, R495A)
T3 sequence (looked up): T1 sequence (looked up) with G464E, R495A

T4: B. stearothermophilus primase DnaG R555A (B. stearothermophilus, UniProt Q9X4D0 1-597, R555A)
T4 sequence (looked up): T1 sequence (looked up) with G464E, R555A

B1: Bacillus stearothermophilus primase DnaG (native) (enzyme, B. stearothermophilus, UniProt Q9X4D0 1-597, looked up)
chain: T1 sequence (looked up) with G464E
B2: Bacillus stearothermophilus replicative helicase DnaB (native) (enzyme, B. stearothermophilus)
chain: MSELFSERIPPQSIEAEQAVLGAVFLDPAALVPASEILIPEDFYRAAHQKIFHAMLRVADRGEPVDLVTVTAELAASEQLEEIGGVSYLSELADAVPTAANVEYYARIVEEKSVLRRLIRTATSIAQDGYTREDEIDVLLDEADRKIMEVSQRKHSGAFKNIKDILVQTYDNIEMLHNRDGEITGIPTGFTELDRMTSGFQRSDLIIVAARPSVGKTAFALNIAQNVATKTNENVAIFSLEMSAQQLVMRMLCAEGNINAQNLRTGKLTPEDWGKLTMAMGSLSNAGIYIDDTPSIRVSDIRAKCRRLKQESGLGMIVIDYLQLIQGSGRSKENRQQEVSEISRSLKALARELEVPVIALSQLSRSVEQRQDKRPMMSDIRESGSIEQDADIVAFLYRDDYYNKDSENKNIIEIIIAKQRNGPVGTVQLAFIKEYNKFVNLERRFDEAQIPPGA

Assays:
[1] = target: Bacillus stearothermophilus replicative helicase DnaB (native) (B. stearothermophilus) (UniProt Q9X4C9); assay: ITC
[2] = target: B2; assay: ITC
[3] = target: T1, B. stearothermophilus primase DnaG E464G; assay: ITC
[4] = target: T2, B. stearothermophilus primase DnaG H494A; assay: ITC
[5] = target: B1; assay: ITC
[6] = target: T3, B. stearothermophilus primase DnaG R495A; assay: SEC
[7] = target: T4, B. stearothermophilus primase DnaG R555A; assay: SEC

Kd [1]: 83.3 nM
stoichiometry N [1]: 0.509
Molecule: B. stearothermophilus primase DnaG Y548A (from UniProt Q9X4D0 1-597) (enzyme)

Molecule: B1
dH [2]: 17.8 kcal/mol
stoichiometry N [2]: 0.287

Molecule: B2
Ka [3]: 1.18e+08 M⁻¹
Kd [3]: 8.5 nM
Ka [4]: 1.18e+08 M⁻¹
Kd [4]: 8.5 nM
Ka [5]: 1.42e+08 M⁻¹
Kd [5]: 7.04 nM
binding result [6]: binds
binding result [7]: binds
